{"source": "patent US20170283470A1", "about": "(OXFORD NANOPORE TECHNOLOGIES, published 2017)", "binders": {"B1": {"name": "CsgG (wild-type E. coli CsgG, outer membrane localized, C-terminally StrepII-tagged, membrane-extracted nonameric pore) (other)", "chain": "CLTAPPKEAARPTLMPRAQSYKDLTHLPAPTGKIFVSVYNIQDETGQFKPYPASNFSTAVPQSATAMLVTALKDSRWFIPLERQGLQNLLNERKIIRAAQENGTVAINNRIPLQSLTAANIMVEGSIIGYESNVKSGGVGARYFGIGADTQYQLDQIAVNLRVVNVSTGEILSSVNTSKTILSYEVQAGVFRFIDYQRLLEGEVGYTSNEPVMLCLMSAIETGVIFLINDGIDRGLWDLQNKAERQNDILVKYRHMSVPPES", "modifications": "N-terminal Cys of the mature protein triacylated (lipidated), as described in paragraph 145", "notes": "Produced from pPG1 in E. coli BL21(DE3) and extracted from outer membranes with detergent; It was amphipol A8-35-solubilized for native PAGE and EM, and reconstituted in planar phospholipid bilayers for single-channel recordings; also called CsgG channel; CsgG pore; not shown: C-terminal StrepII tag of construct pPG1"}, "B2": {"name": "CsgE (periplasmic accessory factor CsgE, his-tagged, CsgE-his) (other)", "chain": "VEVEVPGLLTDHTVSSIGHDFYRAFSDKWESDYTGNLTINERPSARWGSWITITVNQDVIFQTFLFPLKRDFEKTVVFALIQTEEALNRRQINQALLSTGDLAHDEF", "notes": "Added as purified monomeric CsgE; also called specificity factor CsgE; not shown: his tag (CsgE-his from pNH27)"}}, "key": {"[1]": {"molecular_target": "the molecule itself", "assay": "crystal structure, size-exclusion chromatography, EM and single-channel recordings"}, "[2]": {"molecular_target": "B1", "assay": "SYPRO orange fluorescence of CsgE and CsgG bands on SDS-PAGE of the complex band cut from native PAGE"}}}
{"binder": "B1", "values": [{"measurement": "binding result", "setting": "[1]", "value": "binds"}]}
{"binder": "B2", "values": [{"measurement": "CsgG/CsgE ratio (stoichiometry of the complex)", "setting": "[2]", "value": 0.97}]}
